One block for each binder: values may come before it.
What was measured:
[1] = target: T1, FcγRIa extracellular domain with C-terminal His tag (human, UniProt P12314 16-292); test: SPR (Biacore); He/Con_1a divided by He/Con_2b (FcγRIIb)
T1 construct: extracellular domain; Soluble receptor expressed in FreeStyle293 cells; analyte in Biacore; also called FcgRI; FcgRIa; not shown: His tag at the C terminus
Method: (§1) The heterodimerized antibodies He Abs in which one of the H chains was introduced with an alteration were assayed for their binding activities to each activating FcγR and inhibitory FcγR according to the method described in Example 4. […] The activating FcγRs in FIGS. 26, 27, 28, and 29 are FcγRIa, FcγRIIa (R), FcγRIIa (H), and FcγRIIIa, respectively.
(§2) Analysis of interaction between objective antibody and the FcγR was carried out using Biacore T100 (GE Healthcare). HBS-EP+ (GE Healthcare) was used as the running buffer, and the measurement temperature was set to 25° C. Chips produced by immobilizing the antigen peptide by the amine coupling method to a Series S Sencor Chip CM5 (GE Healthcare), or alternatively, chips produced by allowing preliminarily biotinylated antigen peptides to interact with and immobilize onto a Series S Sensor Chip SA (certified) (GE Healthcare) were used. Antibodies of interest were captured onto an antigen peptide-immobilized chip, and allowed to interact to each FcγR diluted with running buffer. To regenerate and repeatedly use the chip, the antibodies captured on the chip were washed off by reacting 10 mM glycine-HCl, pH 1.5.

[2] = target: T2, FcγRIIb extracellular domain with C-terminal His tag (human, UniProt P31994 43-217); test: SPR (Biacore), antibody captured on antigen peptide chip, FcγR as analyte; binding relative to GpH7-A5/GpH7-B3/GpL16-k0 = 100
T2 construct: extracellular domain; Soluble receptor expressed in FreeStyle293 cells; analyte in Biacore; also called FcgRIIb; 2b; not shown: His tag at the C terminus
T2 sequence (looked up): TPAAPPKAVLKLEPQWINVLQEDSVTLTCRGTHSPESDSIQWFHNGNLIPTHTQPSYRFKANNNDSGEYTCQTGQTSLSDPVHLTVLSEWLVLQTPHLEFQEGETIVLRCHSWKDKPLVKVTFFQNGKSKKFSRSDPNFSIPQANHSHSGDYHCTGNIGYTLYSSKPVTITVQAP
Method: as §1, §2

[3] = target: T1, FcγRIa extracellular domain with …; test: as above
Method: as §1, §2

T1 sequence (P12314 16-292): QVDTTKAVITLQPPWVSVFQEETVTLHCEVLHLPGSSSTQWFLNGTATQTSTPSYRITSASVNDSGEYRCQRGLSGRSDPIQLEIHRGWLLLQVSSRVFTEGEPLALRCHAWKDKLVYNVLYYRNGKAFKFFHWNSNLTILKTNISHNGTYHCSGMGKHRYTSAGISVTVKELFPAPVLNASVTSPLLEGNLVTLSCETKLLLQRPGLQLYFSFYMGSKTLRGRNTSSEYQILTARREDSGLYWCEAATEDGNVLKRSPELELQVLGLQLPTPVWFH

B1: GpH7-A5/GpH7-B3 variant P329_01G/GpL16-k0 (antibody, human IgG1, kappa)
heavy 1: not shown
heavy 2: not shown
light: DIVMTQSPLSLPVTPGEPASISCQASESLVHSNRNTYLHWYLQKPGQSPQLLIYKVSNRFSGVPDRFSGSGSGTDFTLKISRVEAEDVGVYYCSQNTHVPPTFGQGTKVEIERTVAAPSVFIFPPSDEQLKSGTASVVCLLNNFYPREAKVQWKVDNALQSGNSQESVTEQDSKDSTYSLSSTLTLSKADYEKHKVYACEVTHQGLSSPVTKSFNRGEC
notes: He Ab: heterodimerized anti-glypican-3 IgG1, substitution in one H chain only; also called He Ab P329G
He_1a/2b (Ia/IIb) [1]: 2.42
He/Con_2b (IIb binding) [2]: 41.7 % of control (control = 100)
He/Con_1a (Ia binding) [3]: 101 % of control (control = 100)

B2: GpH7-A5/GpH7-B3 variant A327_20W/GpL16-k0 (antibody, human IgG1, kappa)
heavy 1: not shown
heavy 2: not shown
light: DIVMTQSPLSLPVTPGEPASISCQASESLVHSNRNTYLHWYLQKPGQSPQLLIYKVSNRFSGVPDRFSGSGSGTDFTLKISRVEAEDVGVYYCSQNTHVPPTFGQGTKVEIERTVAAPSVFIFPPSDEQLKSGTASVVCLLNNFYPREAKVQWKVDNALQSGNSQESVTEQDSKDSTYSLSSTLTLSKADYEKHKVYACEVTHQGLSSPVTKSFNRGEC
notes: He Ab: heterodimerized anti-glypican-3 IgG1, substitution in one H chain only; also called He Ab A327W
He_1a/2b (Ia/IIb) [1]: 1.24
He/Con_2b (IIb binding) [2]: 78.8 % of control (control = 100)
He/Con_1a (Ia binding) [3]: 97.7 % of control (control = 100)

B7: GpH7-A5/GpH7-B3 variant A330_10E/GpL16-k0 (antibody, human IgG1, kappa)
heavy 1: not shown
heavy 2: not shown
light: DIVMTQSPLSLPVTPGEPASISCQASESLVHSNRNTYLHWYLQKPGQSPQLLIYKVSNRFSGVPDRFSGSGSGTDFTLKISRVEAEDVGVYYCSQNTHVPPTFGQGTKVEIERTVAAPSVFIFPPSDEQLKSGTASVVCLLNNFYPREAKVQWKVDNALQSGNSQESVTEQDSKDSTYSLSSTLTLSKADYEKHKVYACEVTHQGLSSPVTKSFNRGEC
notes: He Ab: heterodimerized anti-glypican-3 IgG1, substitution in one H chain only; also called He Ab A330E
He_1a/2b (Ia/IIb) [1]: 1.53
He/Con_2b (IIb binding) [2]: 70.1 % of control (control = 100)
He/Con_1a (Ia binding) [3]: 107 % of control (control = 100)

B8: GpH7-A5/GpH7-B3 variant E333_11K/GpL16-k0 (antibody, human IgG1, kappa)
heavy 1: not shown
heavy 2: not shown
light: DIVMTQSPLSLPVTPGEPASISCQASESLVHSNRNTYLHWYLQKPGQSPQLLIYKVSNRFSGVPDRFSGSGSGTDFTLKISRVEAEDVGVYYCSQNTHVPPTFGQGTKVEIERTVAAPSVFIFPPSDEQLKSGTASVVCLLNNFYPREAKVQWKVDNALQSGNSQESVTEQDSKDSTYSLSSTLTLSKADYEKHKVYACEVTHQGLSSPVTKSFNRGEC
notes: He Ab: heterodimerized anti-glypican-3 IgG1, substitution in one H chain only; also called He Ab E333K
He_1a/2b (Ia/IIb) [1]: 1.27
He/Con_2b (IIb binding) [2]: 80.6 % of control (control = 100)
He/Con_1a (Ia binding) [3]: 102 % of control (control = 100)

Now from value to binder:

He_1a/2b (Ia/IIb) [1]: 1.21
He/Con_2b (IIb binding) [2]: 87.6 % of control (control = 100)
He/Con_1a (Ia binding) [3]: 106 % of control (control = 100)
B3: GpH7-A5/GpH7-B3 variant A330_16H/GpL16-k0 (antibody, human IgG1, kappa)
heavy 1: not shown
heavy 2: not shown
light: DIVMTQSPLSLPVTPGEPASISCQASESLVHSNRNTYLHWYLQKPGQSPQLLIYKVSNRFSGVPDRFSGSGSGTDFTLKISRVEAEDVGVYYCSQNTHVPPTFGQGTKVEIERTVAAPSVFIFPPSDEQLKSGTASVVCLLNNFYPREAKVQWKVDNALQSGNSQESVTEQDSKDSTYSLSSTLTLSKADYEKHKVYACEVTHQGLSSPVTKSFNRGEC
notes: He Ab: heterodimerized anti-glypican-3 IgG1, substitution in one H chain only; also called He Ab A330H

He_1a/2b (Ia/IIb) [1]: 2.01
He/Con_2b (IIb binding) [2]: 52.4 % of control (control = 100)
He/Con_1a (Ia binding) [3]: 106 % of control (control = 100)
B4: GpH7-A5/GpH7-B3 variant A330_03V/GpL16-k0 (antibody, human IgG1, kappa)
heavy 1: not shown
heavy 2: not shown
light: DIVMTQSPLSLPVTPGEPASISCQASESLVHSNRNTYLHWYLQKPGQSPQLLIYKVSNRFSGVPDRFSGSGSGTDFTLKISRVEAEDVGVYYCSQNTHVPPTFGQGTKVEIERTVAAPSVFIFPPSDEQLKSGTASVVCLLNNFYPREAKVQWKVDNALQSGNSQESVTEQDSKDSTYSLSSTLTLSKADYEKHKVYACEVTHQGLSSPVTKSFNRGEC
notes: He Ab: heterodimerized anti-glypican-3 IgG1, substitution in one H chain only; also called He Ab A330V

He_1a/2b (Ia/IIb) [1]: 1.95
He/Con_2b (IIb binding) [2]: 55.6 % of control (control = 100)
He/Con_1a (Ia binding) [3]: 109 % of control (control = 100)
B5: GpH7-A5/GpH7-B3 variant A330_09D/GpL16-k0 (antibody, human IgG1, kappa)
heavy 1: not shown
heavy 2: not shown
light: DIVMTQSPLSLPVTPGEPASISCQASESLVHSNRNTYLHWYLQKPGQSPQLLIYKVSNRFSGVPDRFSGSGSGTDFTLKISRVEAEDVGVYYCSQNTHVPPTFGQGTKVEIERTVAAPSVFIFPPSDEQLKSGTASVVCLLNNFYPREAKVQWKVDNALQSGNSQESVTEQDSKDSTYSLSSTLTLSKADYEKHKVYACEVTHQGLSSPVTKSFNRGEC
notes: He Ab: heterodimerized anti-glypican-3 IgG1, substitution in one H chain only; also called He Ab A330D

He_1a/2b (Ia/IIb) [1]: 1.35
He/Con_2b (IIb binding) [2]: 77.9 % of control (control = 100)
He/Con_1a (Ia binding) [3]: 105 % of control (control = 100)
B6: GpH7-A5/GpH7-B3 variant A330_14T/GpL16-k0 (antibody, human IgG1, kappa)
heavy 1: not shown
heavy 2: not shown
light: DIVMTQSPLSLPVTPGEPASISCQASESLVHSNRNTYLHWYLQKPGQSPQLLIYKVSNRFSGVPDRFSGSGSGTDFTLKISRVEAEDVGVYYCSQNTHVPPTFGQGTKVEIERTVAAPSVFIFPPSDEQLKSGTASVVCLLNNFYPREAKVQWKVDNALQSGNSQESVTEQDSKDSTYSLSSTLTLSKADYEKHKVYACEVTHQGLSSPVTKSFNRGEC
notes: He Ab: heterodimerized anti-glypican-3 IgG1, substitution in one H chain only; also called He Ab A330T

Reference: patent US20180155451A1 (published 2018)
